Results from patent JP2012161321A.
Residue numbers refer to the chain shown, from its start. Blank lines part the entries; values can stand above or below the binder they belong to.

Key:
[1] = molecular target: Muc1ムチン bearing the CA6 sialoglycotope (DS6 antigen), as expressed by CA6-positive human tumour cell lines (human) (UniProt P15941); test: cell-based or functional assay
[2] = molecular target: Muc1ムチン bearing the CA6 sialoglycotope (DS6 antigen), as expressed by CA6-positive human tumour cell lines (human) (UniProt P15941); test: flow cytometry on Caov-3 cells, apparent Kd (Fig. 20)
[3] = molecular target: Muc1ムチン bearing the CA6 sialoglycotope (DS6 antigen), as expressed by CA6-positive human tumour cell lines (human) (UniProt P15941); test: flow cytometry, direct binding to KB cells, apparent Kd (Fig. 18)
[4] = molecular target: Muc1ムチン bearing the CA6 sialoglycotope (DS6 antigen), as expressed by CA6-positive human tumour cell lines (human) (UniProt P15941); test: flow cytometry competition; competitor 2 nM biotin-muDS6, streptavidin-DTAF (Fig. 19)

Sequence of UniProt P15941 (P15941 24-1255): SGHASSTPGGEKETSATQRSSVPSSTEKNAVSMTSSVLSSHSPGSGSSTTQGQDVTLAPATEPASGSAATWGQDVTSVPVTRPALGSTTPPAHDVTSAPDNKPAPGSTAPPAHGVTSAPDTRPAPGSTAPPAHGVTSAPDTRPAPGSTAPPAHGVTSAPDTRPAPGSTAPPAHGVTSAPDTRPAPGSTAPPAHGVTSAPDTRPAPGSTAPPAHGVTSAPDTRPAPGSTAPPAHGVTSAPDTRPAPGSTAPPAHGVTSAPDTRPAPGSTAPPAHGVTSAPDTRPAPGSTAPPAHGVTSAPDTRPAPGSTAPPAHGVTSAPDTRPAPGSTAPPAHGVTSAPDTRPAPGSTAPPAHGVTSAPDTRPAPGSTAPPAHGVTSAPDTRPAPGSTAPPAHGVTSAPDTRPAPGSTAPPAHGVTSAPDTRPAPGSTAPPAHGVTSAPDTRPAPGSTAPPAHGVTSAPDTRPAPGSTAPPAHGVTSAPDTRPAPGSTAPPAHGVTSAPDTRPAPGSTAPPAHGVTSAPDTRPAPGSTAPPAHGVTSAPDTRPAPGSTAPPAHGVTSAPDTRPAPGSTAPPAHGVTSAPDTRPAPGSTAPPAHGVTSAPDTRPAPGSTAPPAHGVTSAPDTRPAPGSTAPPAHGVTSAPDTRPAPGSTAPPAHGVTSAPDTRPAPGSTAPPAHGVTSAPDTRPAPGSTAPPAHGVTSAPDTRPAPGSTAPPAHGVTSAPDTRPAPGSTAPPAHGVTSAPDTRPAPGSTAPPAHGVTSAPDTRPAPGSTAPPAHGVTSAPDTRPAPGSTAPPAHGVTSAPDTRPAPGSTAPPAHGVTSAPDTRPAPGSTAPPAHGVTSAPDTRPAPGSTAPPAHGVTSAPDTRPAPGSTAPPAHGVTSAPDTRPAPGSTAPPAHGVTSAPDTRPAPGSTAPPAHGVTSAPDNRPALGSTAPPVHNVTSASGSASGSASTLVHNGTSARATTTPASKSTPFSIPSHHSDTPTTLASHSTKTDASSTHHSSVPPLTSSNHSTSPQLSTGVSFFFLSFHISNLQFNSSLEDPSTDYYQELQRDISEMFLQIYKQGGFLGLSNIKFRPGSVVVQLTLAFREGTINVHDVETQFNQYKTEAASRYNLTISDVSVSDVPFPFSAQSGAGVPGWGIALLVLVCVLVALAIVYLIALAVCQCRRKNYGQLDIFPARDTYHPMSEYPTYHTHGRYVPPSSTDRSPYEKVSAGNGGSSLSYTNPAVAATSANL

IC50, colony formation assay on Caov-3 cells [1]: 0.8 nM
Kd [2]: 3.9 nM
B1: muDS6−DM1細胞傷害性コンジュゲート (muDS6-SPP-DM1) (antibody, from another filing, V domains shown)
VH: QAYLQQSGAELVRSGASVKMSCKASGYTFTSYNMHWVKQTPGQGLEWIGYIYPGNGATNYNQKFKGKATLTADPSSSTAYMQISSLTSEDSAVYFCARGDSVPFAYWGQGTLVTVSA
VL: QIVLTQSPAIMSASPGEKVTITCSAHSSVSFMHWFQQKPGTSPKLWIYSTSSLASGVPARFGGSGSGTSYSLTISRMEAEDAATYYCQQRSSFPLTFGAGTKLELKR

Kd [3]: 0.82 nM
EC50 [4]: 3 nM
B2: ヒト化DS6 1.01型 (humanized DS6 version 1.01) (antibody, from another filing, V domains shown)
VH: B1 VH with Y3Q, Q5V, L11V, R13K, S14P, K65Q, P74T
VL: B1 VL with Q1E, I10T, K18R, R76S

Kd [3]: 0.69 nM
EC50 [4]: 1.7 nM
B3: DS6のキメラ型 (chimeric DS6, human constant regions and murine variable regions) (antibody, from another filing, V domains shown)
VH: B1 VH
VL: B1 VL

B4: huDS6v1.01−SPDB−DM4コンジュゲート (antibody, from another filing, human IgG1, V domains shown)
VH: B1 VH with Y3Q, Q5V, L11V, R13K, S14P, K65Q, P74T
VL: B1 VL with Q1E, I10T, K18R, R76S
IC50, in vitro cytotoxicity (MTT) on WISH cells [1]: 0.44 nM

Kd [3]: 0.85 nM
EC50 [4]: 1.9 nM
B5: ヒト化DS6 1.21型 (humanized DS6 version 1.21) (antibody, from another filing, V domains shown)
VH: B1 VH with Y3Q, Q5V, L11V, R13K, S14P, K65Q
VL: B1 VL with Q1E, I10T, K18R, R76S
